US20070060522A1
One block for each substance: values may come before it.

Legend:
Assay in all cases: cell-based or functional assay
[1] = molecular target: CD54 (ICAM-1) on A375 human melanoma cells (human) (UniProt P05362)
[2] = molecular target: αMβ2 (Mac-1; CD11b/CD18) on human peripheral blood monocytes (human) (UniProt P11215)
[3] = molecular target: αLβ2 (LFA-1; CD11a/CD18) on human peripheral blood leukocytes (human) (UniProt P20701)

Chain of CD54 (ICAM-1) on A375 human melanoma cells (human) (P05362 28-532): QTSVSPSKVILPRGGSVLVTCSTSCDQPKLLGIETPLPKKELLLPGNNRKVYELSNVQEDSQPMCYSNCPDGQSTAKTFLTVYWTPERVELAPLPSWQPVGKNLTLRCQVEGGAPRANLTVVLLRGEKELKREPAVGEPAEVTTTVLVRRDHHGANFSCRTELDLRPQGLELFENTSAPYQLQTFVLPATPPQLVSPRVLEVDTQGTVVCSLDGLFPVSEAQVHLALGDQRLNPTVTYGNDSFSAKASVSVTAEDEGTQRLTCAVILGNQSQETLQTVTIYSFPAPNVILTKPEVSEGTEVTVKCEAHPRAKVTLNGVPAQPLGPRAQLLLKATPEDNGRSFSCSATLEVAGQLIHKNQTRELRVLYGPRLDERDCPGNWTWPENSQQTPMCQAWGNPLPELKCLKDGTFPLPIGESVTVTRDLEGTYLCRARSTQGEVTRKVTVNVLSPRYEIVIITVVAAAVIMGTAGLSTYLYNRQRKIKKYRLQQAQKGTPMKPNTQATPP

inhibition of adherence of sFn pretreated monocytes to A375 cells [1]: 86%
inhibition of adherence of untreated monocytes to A375 cells [1]: 53%
Substance: murine anti-human monoclonal blocking antibody against CD54 (clone 84H10)

monocyte adherence when monocytes and A375 cells were both pre-treated with sFn, static microplate assay (untreated control 32.9+1.3%) [1]: 15.9%
adherence of sFn treated monocytes to untreated A375 cells, static microplate assay (untreated control 32.9+1.3%) [2]: 38.8%
monocyte adherence to sFn pre-treated A375 cells, static microplate assay (untreated control 32.9+1.3%) [2]: 68.5%
Substance: soluble fibrin (sFn) (from UniProt P02671 36-629; P02675 45-491; P02679 27-453) (ligand)

inhibition of monocyte adherence to sFn pre-treated A375 cells [3]: 23%
inhibition of monocyte adherence to untreated A375 cells [3]: 80%
Substance: murine anti-human monoclonal blocking antibody against αLβ2 (clone 25.3)

inhibition of monocyte adherence to sFn pretreated tumor cells [2]: 80%
inhibition of monocyte adherence to untreated A375 cells [2]: 22.5%
Substance: blocking monoclonal anti-αMβ2 antibody (clone ICRF44)
